Results from the supplement of paper PMC9732359.
± gives the uncertainty stated by the source.

Experiment: protein stability index of a GFP-peptide fusion (yeast GPS) (PSI 1-4); higher = more stable; sorted into four equal gates, so the index is relative within each strain
Conditions: san1∆
In short: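 Plasmids in a pooled yeast library fused tiled 17-residue yeast protein peptides downstream of GFP and also expressed Cherry. Mid-log cultures grown without leucine were sorted into four equal gates by GFP/Cherry fluorescence ratio. Each gate's plasmids were PCR-amplified and Illumina-sequenced, and reads were matched to strains by barcodes. The protein stability index is derived by multiplying each gate's read frequency by its gate number and summing the results.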

Sequence	protein stability index
NECIASTSNALKVLSGD [SNF12]	2.86 ± 0.05
NEDARAIFNNEFDSDDD [RPN4]	3.42 ± 0.073
NEEGDWSCIVVENWIID [ITC1]	2.68 ± 0.12

Same assay, conditions: ubr1∆

Sequence	protein stability index
LVSLFEDTNLAAIHAKR [HHT1]	2.81 ± 0.063
LVSSGDRFIELISDQLL [YML103C/NUP188]	3 ± 0.06
LVTPKSFLFDVLKTLEY [NUT1]	2.92 ± 0.18
LVTQHKAKYNTPKYRLV [RPL5]	1.87 ± 0.058
LWDSKELEQLVEFNRKV [RPN3]	2.81 ± 0.084
LWNQWLKLNTSLPSKLT [SRP68]	1.83 ± 0.037
LWVFQAFTCFCIKKIME [SRB8]	1.48 ± 0.037
LYDALEPSDLRSWTLTS [YGL100W/SEH1]	3.03 ± 0.049
LYNDADVLTLENIQEGT [CDC53]	3.2 ± 0.046
LYNKIWTEASSSGAGTV [ECM29]	2.93 ± 0.08
LYPIFLLDDKKLMDEDS [YJR042W/NUP85]	1.66 ± 0.057
LYQSKGRYMEALALYVD [SRP68]	2 ± 0.11
LYTLAQETEGTNRHTLA [SIR3]	2.52 ± 0.059
LYVDSESTSSTEEVEAL [MTW1]	3.24 ± 0.11
LYVLPSFNIPRLTFKPW [YMR129W/POM152]	1.54 ± 0.096
LYYRPHINKKSQLDLFL [GRR1]	1.85 ± 0.093
MAESHRLYVKGKHLSYQ [RPL33A]	2.62 ± 0.058
MAFQKDAKSSAYSSRFQ [RPL5]	2.92 ± 0.064
MAFRKSNVYLSLVNSYI [COB]	2.36 ± 0.064
MALNKVLITDHIEKLEN [CDC53]	2.28 ± 0.052
MAPLSLNFKDDKKYKGL [REC8]	2.47 ± 0.075
MATLEELDAQTLPGDDE [RPT5]	3.49 ± 0.13
MCEQALSALFTISSKPD [YCS4]	1.77 ± 0.032
MCQNPMQKPVPFVPVLD [FAS1]	1.52 ± 0.031
MDFGVDPSMDPELAMAL [RPN10]	2.84 ± 0.069

Sequence	protein stability index
MDHEEARRKHVSGKILG [RPS22A]	3.02 ± 0.12
MDIAERIAVLHQKTKTL [YGL172W/NUP49]	1.51 ± 0.067
MDIMEDFLRYINIKYLR [SNF2]	1.3 ± 0.036
MDSIIPAGVKLDDLQVI [PGD1]	2.52 ± 0.056
MDVDQFDFLDDGTAQLS [YJR042W/NUP85]	2.53 ± 0.063
MDVDSVKTTLVSLTQLR [RPC82]	1.5 ± 0.093
MEIVANAKESNYTDLIW [MED1]	2.83 ± 0.081
MFTYSQETQHGNITRGL [RPN2]	3.21 ± 0.046
MGKSAVIFVERATPATL [SRB2]	1.31 ± 0.29
MGRVRTKTVKRASKALI [RPS17A]	1.52 ± 0.06
MGSRRYDSRTTIFSPEG [PRE9]	3.06 ± 0.15
MIISGSRDKTIKVWTIK [ASC1]	2.95 ± 0.087
MILNYNPSQGVSNSGAQ [UBP6]	3.25 ± 0.055
MKQYRDFLGVASTGSGK [PRP28]	2.93 ± 0.043
MKQYSYLMDSKNVRTRI [RRI1]	2.94 ± 0.22
MKTKTINAQGEEIVVVA [PRP8]	1.52 ± 0.06
MKVFVTKHLMPQDLTFN [RPB7]	2.94 ± 0.051
MLKQHLFKYQGHIGAYL [PUP1]	2.25 ± 0.071
MMCDFGTGNNNKLNFIV [DIB1]	1.6 ± 0.061
MNIIQQQQQQNTNNNDT [GAL11]	2.52 ± 0.04
MNRPGARVTRRKRCKGT [RPL11A]	3.15 ± 0.13
MPPKFDPNEVKYLYLRA [RPL12A]	1.78 ± 0.079
MQENDKINQERLERRIN [CSI1]	1.27 ± 0.044
MQFAKSKTVKVLKTLIE [RPN6]	2.26 ± 0.093
MQHNPLAGKRGPKSGST [PGD1]	2.96 ± 0.048

Sequence	protein stability index
MQVYLVPIERVAQLKPF [RPC37]	2.54 ± 0.058
MREITETIAEAKKKVLD [RPO21]	3.24 ± 0.091
MSGRGKGGKGLGKGGAK [HHF1]	3.58 ± 0.074
MSIVFGDKFSEDFRIQF [UBP6]	2.37 ± 0.063
MSLQHEKVTIAPLVLLS [RPN8]	1.21 ± 0.031
MSSDASTYRLEDVLSSF [SSN2]	2.56 ± 0.091
MSVERGIRWELISRLCP [RPT1]	1.93 ± 0.034
MTNLTYFLHLSVFNAEL [YCS4]	1.76 ± 0.073
MTVTKVSLPEGSFKRVK [BRR2]	3.17 ± 0.076
MTYKNKLTVCFDDILKV [MED2]	2.08 ± 0.033
MVATVKRTIRIKTQQHI [TAF14]	1.56 ± 0.09
MVAYSPIIATYGNRAEQ [SRP68]	2.78 ± 0.073
MVEWLESRSFSPIPFPP [PRP8]	2.9 ± 0.11
MVHREFLKLANGGKFSK [RGR1]	2.91 ± 0.07
MVLVQDLLHPTAASEAR [RPS27A]	3.17 ± 0.11
MVMFMHMAKGLYYGSYR [COB]	1.13 ± 0.072
MYGLTMEWPKDMLKYKE [ITC1]	3.07 ± 0.2
NAANVPVENIWADIFAK [RPP1A]	2.34 ± 0.081
NAARKAEASGEAADEAD [RPS9A]	3.47 ± 0.11
NAIFQMESEEVPLTKRY [PCI8]	3.08 ± 0.044
NAISLQLKYDTSVQEKE [YIL149C/MLP2]	2.92 ± 0.07
NAISNTQDDFTTSVDVM [SRP54]	3.2 ± 0.045
NAKKRVFKTHSYRGVDL [RPS15]	3.32 ± 0.047
NALHTERLHELKKLQSD [SMC1]	3.48 ± 0.1
NALYDTLLESNLCKIIE [RPN6]	2.41 ± 0.082

Sequence	protein stability index
NANEISANTNNTCTIST [SWP82]	2.62 ± 0.031
NANQQFLPFNNSASNNG [SWI1]	3.02 ± 0.06
NANTGFSFGGTQTGQNT [YGL172W/NUP49]	3.49 ± 0.11
NARMPGMPNMPGMPNMP [SRP54]	2.94 ± 0.071
NASANSTSFSFNAPATG [YOR098C/NUP1]	2.96 ± 0.033
NASGNKRSGVIETVDDK [ITC1]	2.45 ± 0.052
NASQMGNTGSGGYDNAW [RPB3]	2.5 ± 0.15
NATANATANATANATAE [SNF11]	3.325 ± 0.03
NCIRILADKLENYEGKQ [YIL149C/MLP2]	2.81 ± 0.19
NDANITSNKEGFNSIWK [SSN2]	3.09 ± 0.069
NDDELNKLLGNVTIAQG [HTA1]	3.34 ± 0.078
NDEKRVKEEYDIWQSRD [YIL149C/MLP2]	3.39 ± 0.084
NDELVELLANKCPLLVE [GRR1]	1.96 ± 0.035
NDIDDLDMELAELDPSL [SEC65]	3.03 ± 0.073
NDIFERIATEASKLAAY [HTB1]	1.34 ± 0.24
NDIHLRFMRFLADRDEF [ECM29]	2.5 ± 0.038
NDLRVSLNEKNALHTER [SMC1]	2.81 ± 0.089
NDNEGKHISASIDNDFS [YAR002W/NUP60]	2.92 ± 0.067
NDPAREKFSSFIESIVV [SNF12]	2.77 ± 0.04
NDPNAAVNMTQNIMTLP [MED6]	3.11 ± 0.059
NDVTNKNINIGKHSQEQ [SIR4]	2.5 ± 0.041
NECIASTSNALKVLSGD [SNF12]	2.79 ± 0.062
NEDARAIFNNEFDSDDD [RPN4]	3.41 ± 0.097
NEEGDWSCIVVENWIID [ITC1]	2.95 ± 0.11
